Experimental data: the nanobody polyreactivity screen of Harvey et al. (2022)

Assay: yeast display, Sf9 membrane polyspecificity reagent, FACS + sequencing; frameworks hold sequencing errors
How it was run: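 A nanobody's polyreactivity label depends on the gate it was sorted from. Yeast display cells were stained with 10% biotinylated, detergent-solubilized Sf9 membrane reagent for 1 hour at 4 °C, enriched on streptavidin microbeads and sorted by FACS. The low and high (top ~1%) gates were set on anti-HA fluorescence for expression and streptavidin fluorescence for reagent binding.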

Sequence	polyreactivity (PSR sort gate)
QVQLVESGGGLVQAGGSLRLSCAASGFIFGHYAMGWYRQAPGKERELVAGIISSGGSTHYADSVKGRFTISRDNAKNTVYLQMNSLKPEDTAVYFCAADVYRYYAGSRYYYWGQGTQVTVSS	low polyreactivity
QVQLVESGGGLVQAGGSLRLSCAASGSTFYYYAMGWYRQAPGKEREFVAAISGGDGTTSYADSVKGRFTISRDNAKNTVYLQMNSLKPEDTAVYYCATPYTSYLYGYDYWGQGTQVTVSS	low polyreactivity
QVQLVESGGGLVKAGGSLRLICAAYGRIFALYAMGWYRHAPGKERELVAAINNGASTNYADSVKWRFTISRDNAKNTVYVQMNSLKPEDTAVYYCAVRAARSGQRFYSWGQGTQVTVSS	high polyreactivity
QVQLVESGGGLVQAGGSLRLSCAASGSIFYRYAMGWNRQAPGKEKELVAAISRSGGRTYYADSVKGRFTISRDNAMNTVYLQMNSLKPEDTAVYYCAAESTVGTDLGGYSWGQGSQVTVSS	high polyreactivity
QVQHVESGGGLVQAGGSLRLSCAASGRTFNFNTMGWYRQAPGKERELVASITSGGSTNYADSVKGRFTISRDKAKNTVYLQMNSLKPVDTAVYYCATRTTTFWFDYWVQGTQVTVSS	low polyreactivity
PVQLVESGGGLVQAGGSLRLSCAASGRTFGLNGKGWYRQSPGKEREFVATITGSGTSTYYADSVKGRFTISRDNAKNTVYLQMNSLKPEDSAVYFCAALSGLWGYHYYHEYYYWGQGTQVTVSS	low polyreactivity
QVQLEESGGGLVLAGGSLRLSCAASGSTFYNYAKGCYREAPGKERELVAAITFTGGSTYYADSVKGRFTISRDNAKNTVYLQMNSLKPEDTAVYYCNRLGPLGDQQQYDYWGQGTQVTVSS	low polyreactivity
QVQLVESGGGLVQAGGSLRLSCAASGSTITFYTMGWYRQEPGKEREFVADIDDSGGITYYADSVKGRFTISRDNAKNTVYLQMNSLKPEDTAVYSCAAEYWTACYWICVDYWGQGTQVTVSS	high polyreactivity
QVQLVDSGGGLVQAGGRLRLTCAASGSTFGPNAMGWYSPAPGKERELVADISGGSTNYADSVKGRFTISRDNAKNTVYLQMKSLKPEDTAVYSCATDDHVEPVRRLYGYWGQGTQVTVSS	low polyreactivity
QVQLVESGGGLVQAGGSLRLSCAASGRIIGPYTMGWYRQAPGKEMEFVAAITRRGGSTYYADSVKGRFTISRDNAKNTVYLQMNSLKPEDTEVYYCAAVGQKRSLGYSWGQGTQVTVSS	low polyreactivity
QVQLVESGGGLVQAGGSLRLSCAASGFYGNAMGWYRQAPGKERELVAAITWSGGSTYYADSVKGRFTISRDNAKNTVYLQMNSLKPEDTAVYYCNKLQHRKYNGYDYWGQGTQVTVSS	high polyreactivity
QVQLVESGGGLVQAGGSLRLSCAASGRTFVSYAMGWYRQAPGKERELVAAIRYRGGSTYYADSVKGRFTISRDNAMNTVYLQMNSLKPEDTAVYYCAANQGRYNIYSNYDYWGQGTQVTVSS	high polyreactivity
QVQLVDSGGGLVQAGGSLRFSCAASGSIFPVNVMGWYRQAPGKERELVADITSTGTYYADSVKGRFTISRDNAKNTDYLQMNSLKPEDTAVYYCAKAGGSWYRRYYYWGQGTQVTVSS	high polyreactivity
QVQLVESGGGLVQAGGSLRLSCAASGLTFPSYAMGWYRQAPGKERELVAAISRRSGSTYYADSVKGRFTISRDNAKNTVYLQMNSLKPEDTAVYYCTTRRGERGYWGQGTQVTVSS	high polyreactivity
QVQLVESGGGLVQAGGSRRLSCAASGSTFWYYAMGWYRQAPGKERELVAAIRWSDGSTYYADSVKGRFTISRDNAKNTVYLQMTSLKPEDTAVYYCEYYYWGQGTQVTVSS	low polyreactivity
QVQLVESGGGLVQAGGSLRLSCAASGGIFYYYAMGWYRQAPGKERELVATISNGGSTYYADSVKGRFTISRDNAKNTVYLQMNSLKPEDTAVYYCAADSSSDQYRYFPFDHWGQGTQVTVSS	high polyreactivity
QVQLVESGGGLVQAGGSLRLSCAASGLTLSYYAMGWYRQAPGKERELVATISWRTGSTYYADSVKGRFTISRDNAKNTVYLQMNSLKPEDTAVYYCNARGFQYSYSHLIYYPYDYWGQGTQVTVSS	high polyreactivity
QFQLVESGGGLVQAGGSLRLSCAASGRTFKYNAMGWYRQAPGKERELVAAISSTGSTNYADSVKGRFTISRDNAKNTVYLQMNSLKPEDTAVYYSAARGLPSNYYYYVHGYIMYYWGQGTQVTVSS	low polyreactivity
QVQHVESGGGLVQAGGSLRLSCAASGLIFYYYDMGWYRQPPGKERELVAAISYNGGTTYYSDSVKGRFTISRDNAKNTVYLQMNSLKPEDTAVYYCASEQLVSGYDYWGQGTQVTVSS	low polyreactivity
QVQLVESGGGLVQAGGSLRLSCAASGRTFIPYAMGWYRQAPGKERELVAAISYSGGSTYYADSVKGRFTISRDNAKNTVYLQMYSLKPEDTAVYYCNAYYGSYYYDYNYWGQGTQVSVSS	high polyreactivity
QVHLVESGGGLVQAGGSLRLSCAASGGTFRVYAMGWYRQAPGKEWELVASISNGGSTNYADSEKGRFTISRDNAKNTVYLQMNSLKPEDTAVYYCAADPSYEVWYYDSPEYNYWGQGTQVTVSS	low polyreactivity
QVQLVESGGGLVHPGGSLRLSCDASGLILDGYAMGWYRQAPGKERELVAAITRSGGRTYYADSVKGRFTISRDNAKNTVNLQKNRQKPVDTAVYHSAALGWSGRYRYDYWGQGTQVTVSS	high polyreactivity

Sequence	polyreactivity (PSR sort gate)
QVQLVESGGGLVQAGGSLRLSCAASGSIFDYNAMGWYRQAPGKERELVASIRWSGGRTYYADSVKGRFTISRDNAKNTVYLQMNSLKPEDTAVYYCNRKPQEYVLQGSSNGYDYWGQGTQVTVSS	low polyreactivity
QVQLVESGVGLVQAGGSLRLSCAASGRTFFNYVMGWYRPAPGKERELVAAISRSGGSTYYADSVKGRFTLSRDNAKNTVYLQMNSLKPEDTAVYYCAADKYYEYYWGQATQVTVSS	high polyreactivity
QVQLVESGGGLVQAGGSLRLSCAASGSIFITYAMGWYRQAPGKERELVAAIRDSGDRTYYADSVKGRFTISRDNAKKTVYLQMNSLKPEDTAVYYCAARIWTGRGRKLGYGYDYWGQGTQVTVSS	low polyreactivity
QDQLVESGGGLVQAGGSLRLSCAASGSTFKKYALGWYRQAPGKERELVAAITGSGGRTYYADSVKGRFTISRDNAKNTVYLQMNSLKPEDTAVYYCAARRYLSGGYYYCGQGTQVTVSS	high polyreactivity
QVQLQESGGGMVQAGGSLLSCAASGTISYYREMGWYRQAPGKERELVAGIGVGTITYYADSVKGRFTIIRDNAKNTVYLQMNSLKPEDTAVYYCAAHIDGNDYHAYWGQGTQVTVSS	low polyreactivity
QVQLVESGGGLVQAGGILSLSCAASGLIFRKNAKGWYRQAPGKEMELVAAISGRGGITYYADSVKGRFTISRDNAKNTVYLQMNSLKPEDTAVYYCATRFYRPRDGLYDYWGHGTQVTVSS	high polyreactivity
QVQLVESGGGLVQAGGSLRLSCAASGGTFLFYGMGWYRQAPGKERELVAVITWSGGSTYYADSVKGRFTISRDNAKNTVYLQMNSLKPEDTAVYYCNAANTGSPDYQSIGYNFNYWGQGTQVTVSS	low polyreactivity
QVQHVESGGGLVQAGGSLRLSCAASGRIYAMGWYRQAPGKERELVARITKSGTSTYYADSVKGRFTISRDNAKNTVYLQMNSLKPEDTAVYYCNARYWGYWGDHYDYWGQGTQLTVSS	high polyreactivity
QVQLVESGGGLVQAGGSLRLSCAASGFIFDDNTMGWYRQAPGKERELVAAISYSAGSTYYADSVKGRFTISRDNAKNTVYLQMNSLKPEDTAVYYCAAQHYWVTSYLSSYDYWGQGTQVTVSS	low polyreactivity
QVQLVESGGGLVQAGGSLRLSCAASGRTFFSYTMGWYRQAPGKEREFVAAITTSGGYTHYADSVKGRFTISRDNAKNTVYLQMNSLIPEDTAVYYCAAVGRYPYKGYNYWGQGTQVTVSS	high polyreactivity
QVQLEESGGGLVQAGGSLRISCAASGFTFKYYVMGWYRQAPGKERFVAAITGSGASTYYADSVKGRFTISRDNAKNTVYLQMNSLKPEDTAVYYCNAVYYAGRYRYDYWGQGTQVTVSS	high polyreactivity
QVQLVESGGGLVQAGGSLRLSCAASGFTFYFYAMGWYRQAPGKERELVAAITGGTSTYYADSVKGRFTISRDNAKNTVYFQRNSLKPEDTSVYYCAAGYLDVLWLLDLLQLYGYWGQGNQVTVSS	low polyreactivity
QVQLVESGGGLVQAGGSLRLSCAAYGFIFGGNAMGWYRQAPGKERELVAAITARSGSTYYADSVKGRFTISRDNAKNTVYLQMNSLKPEDTAVYYCATPVYRSTYEYDYWGQGTQVTVSS	low polyreactivity
QVQLVESGGGLVQAGGSLRLSCAASGSIFDYYAMGWYRQAPGKERELVASITWSGGRTSYADSVKGRFTISRDNAKNTVYLQMNSLKPEDTAVYYCAAKLWSYAYQHKRVWYYYWGQGTQVTVSS	high polyreactivity
QVQRVESGGGLVQAGGSLRLSCAASGITIYHYAMGCYRQAPGKERELVAAISRSGGSTSYADSVKGRFTISRDNAKNTVYLQMNSLKPEDTAVYYFAARLVRESDPLGYWGQGTQVTVSS	high polyreactivity
QVQLVESGGGLVQAGGSLRLSCAASGYTFYSNAMGWYRQAPRKERELVASIRSRGRSTYYADSVKGRFTISRDNAKNTVDLQMNSLKPEDTAVYYCAALPNKPAVYAYDYWGQGTQVTVSS	low polyreactivity
QVQLVESGGGLVQAGGSLRLSCADSGRTFRIYAMGLYIQAPGKERELVAAITRRGGSTYYADSVKGRFTISRDNAKNTVYLQMNSLKPEDTAVYYCAADLRYGYLYPYDSWGQGTQVTVSS	high polyreactivity
QVQLEESGGGLVQAGGSLRLSCAAYGFTIVGNTMGWYRQAPGKERELVASINTNGGSTYYADSVKGRFTISRDNAKNTVYLQMNSLKPEDTAVYYCNARSWYPYDYWGQGTQVTVSS	low polyreactivity
QFQLVETGGGLVQAGGSLRLSCAASGSILGFNAMRWYIQAPGKESELGAAIRWSGDSTYADSVKGLFTMSRDNAKNTVYLQMNSLTQEDPSFYYCNARDTSYANWLSHFYYWGQGTQVTVSW	low polyreactivity
QVQLVESGGGLVQAGGSLRLSCAASGITFRRYALGWYRQAPGKERELVAAITSGGGTYYADSVKGRFTISRDNAKNTVYLQMNSLKPEDTAVYYCNTYYHWLTMDYWGQGTQVTVSS	high polyreactivity
QVQLVDSGGGLVQAGGSLRLSCAASGSTFGSYAMGWYRQAPGKERELVAAISWNGGRTYYADSVKGRFTISRDNAKNTVYLQMNSLKPEDTAVYYCAKVVKYQSGGGLDYWGQGTQVTVSS	high polyreactivity
